{"source": "patent US20130253037", "key": {"[1]": {"biological_target": "6-His-PHLDA1 (recombinant, E. coli) (UniProt Q8WV24)", "sequence (Q8WV24 whole entry)": "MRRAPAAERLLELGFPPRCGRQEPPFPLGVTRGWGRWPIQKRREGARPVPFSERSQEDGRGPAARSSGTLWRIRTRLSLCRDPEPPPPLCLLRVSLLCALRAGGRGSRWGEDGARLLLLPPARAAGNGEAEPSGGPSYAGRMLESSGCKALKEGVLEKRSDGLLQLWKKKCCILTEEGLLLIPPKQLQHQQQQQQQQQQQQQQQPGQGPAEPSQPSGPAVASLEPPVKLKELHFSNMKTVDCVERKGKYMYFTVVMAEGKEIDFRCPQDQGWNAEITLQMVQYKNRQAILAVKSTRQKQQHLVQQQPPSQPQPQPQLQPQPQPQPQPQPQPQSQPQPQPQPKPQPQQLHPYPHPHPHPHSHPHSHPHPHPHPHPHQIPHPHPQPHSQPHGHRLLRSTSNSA"}, "[2]": {"biological_target": "6-His-LIMK2 (recombinant, E. coli) (UniProt P53671)", "sequence (P53671 whole entry, looked up)": "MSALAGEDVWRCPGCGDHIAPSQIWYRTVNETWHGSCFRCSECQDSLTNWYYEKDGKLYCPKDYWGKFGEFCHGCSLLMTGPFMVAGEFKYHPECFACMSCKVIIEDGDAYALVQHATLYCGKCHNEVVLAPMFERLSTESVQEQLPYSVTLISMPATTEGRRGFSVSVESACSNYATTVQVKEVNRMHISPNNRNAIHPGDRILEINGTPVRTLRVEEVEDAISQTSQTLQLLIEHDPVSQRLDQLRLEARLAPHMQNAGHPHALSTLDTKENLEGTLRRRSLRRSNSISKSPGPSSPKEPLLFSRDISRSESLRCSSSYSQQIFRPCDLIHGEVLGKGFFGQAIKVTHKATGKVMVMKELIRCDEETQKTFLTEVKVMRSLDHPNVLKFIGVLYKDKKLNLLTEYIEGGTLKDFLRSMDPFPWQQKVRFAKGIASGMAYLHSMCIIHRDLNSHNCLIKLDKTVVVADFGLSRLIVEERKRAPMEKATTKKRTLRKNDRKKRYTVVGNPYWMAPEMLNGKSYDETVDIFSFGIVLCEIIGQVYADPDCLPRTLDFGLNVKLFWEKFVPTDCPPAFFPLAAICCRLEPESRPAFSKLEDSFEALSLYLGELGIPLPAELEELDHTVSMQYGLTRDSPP"}}}
{"substance": "6-His-Aurora-A (recombinant, wild type, from Sf9 insect cells)", "values": [{"measurement": "in vitro kinase assay, cofilin phosphorylation with [32P] ATP", "setting": "6-His-cofilin", "result": "Aurora A does not phosphorylate cofilin (FIG. 6H, lanes 1 and 4)"}, {"measurement": "in vitro kinase assay with Aurora A/TPX2 and [γ-32P]ATP (phosphorylation of PHLDA1)", "setting": "[1]", "result": "Aurora A directly phosphorylated PHLDA1 (FIG. 1A, lane 2)"}, {"measurement": "in vitro phosphorylation of wild-type, Ser78A and Ser98A PHLDA1 alleles by Aurora A/TPX2", "setting": "[1]", "result": "Aurora A was found to predominantly phosphorylate PHLDA1 at Ser98 (FIG. 2C)"}, {"measurement": "LIMK2 kinase activity (cofilin phosphorylation) after pre-incubation with Aurora A", "setting": "[2]", "result": "LIMK2 preincubated with Aurora A showed increased kinase activity (lane 2)"}, {"measurement": "in vitro kinase assay with recombinant Aurora A/TPX2 and 6-His-LIMK2 (phosphorylation of LIMK2)", "setting": "[2]", "result": "Aurora A directly phosphorylates LIMK2 (FIG. 5A, lane 2)"}, {"measurement": "in vitro phosphorylation of wild-type, S283A, T494A and T505A LIMK2 alleles by Aurora A/TPX2", "setting": "[2]", "result": "Aurora A phosphorylates LIMK2 at all these sites (FIG. 8A)"}]}
